Data: US20090226444A1 (MICROMET, published 2009)

T1: soluble human CEA antigen (sCEA; Abcam, Ltd, Cambridge UK) (human, UniProt P06731 35-685, limits assumed)
T1 construct: Bought soluble CEA; also called soluble CEA; immobilized CEA antigen
T1 sequence: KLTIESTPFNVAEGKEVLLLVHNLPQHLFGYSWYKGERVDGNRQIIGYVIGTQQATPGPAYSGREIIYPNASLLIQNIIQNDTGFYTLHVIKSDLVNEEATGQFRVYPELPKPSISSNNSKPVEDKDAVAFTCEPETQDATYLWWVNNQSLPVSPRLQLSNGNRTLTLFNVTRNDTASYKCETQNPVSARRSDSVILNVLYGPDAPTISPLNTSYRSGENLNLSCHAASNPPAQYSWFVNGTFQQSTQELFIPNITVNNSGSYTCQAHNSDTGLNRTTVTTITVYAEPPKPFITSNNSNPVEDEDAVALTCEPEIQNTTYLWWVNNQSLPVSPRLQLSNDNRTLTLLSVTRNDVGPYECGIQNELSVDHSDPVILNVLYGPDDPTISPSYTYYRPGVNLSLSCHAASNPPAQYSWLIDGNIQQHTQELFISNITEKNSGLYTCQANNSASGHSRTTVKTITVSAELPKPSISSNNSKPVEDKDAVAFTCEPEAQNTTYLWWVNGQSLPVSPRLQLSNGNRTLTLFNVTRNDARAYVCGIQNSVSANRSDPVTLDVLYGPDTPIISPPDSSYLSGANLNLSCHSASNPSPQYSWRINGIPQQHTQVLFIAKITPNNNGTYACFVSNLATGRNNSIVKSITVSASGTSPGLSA

T2: human CEA (carcinoembryonic antigen-related cell adhesion molecule 5; CEACAM5), membrane-bound on cells (human, UniProt P06731 35-685)
T2 sequence: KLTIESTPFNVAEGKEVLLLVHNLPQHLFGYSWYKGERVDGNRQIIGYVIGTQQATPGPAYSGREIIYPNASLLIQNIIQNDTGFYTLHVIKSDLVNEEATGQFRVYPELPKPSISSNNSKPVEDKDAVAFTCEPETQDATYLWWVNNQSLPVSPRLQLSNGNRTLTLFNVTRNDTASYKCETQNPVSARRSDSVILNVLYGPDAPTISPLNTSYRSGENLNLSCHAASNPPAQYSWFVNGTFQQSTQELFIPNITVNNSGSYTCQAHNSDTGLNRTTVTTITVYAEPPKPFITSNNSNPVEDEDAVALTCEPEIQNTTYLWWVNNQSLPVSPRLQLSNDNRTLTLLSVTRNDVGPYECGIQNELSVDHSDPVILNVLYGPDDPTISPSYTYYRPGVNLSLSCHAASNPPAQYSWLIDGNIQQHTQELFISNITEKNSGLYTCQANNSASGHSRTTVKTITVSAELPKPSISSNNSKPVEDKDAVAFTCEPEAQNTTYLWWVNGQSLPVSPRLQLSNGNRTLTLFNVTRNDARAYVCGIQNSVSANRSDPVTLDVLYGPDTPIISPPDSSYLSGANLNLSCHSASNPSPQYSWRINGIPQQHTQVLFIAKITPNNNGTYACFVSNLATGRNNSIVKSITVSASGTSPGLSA


Key:
[1] = target: T1, soluble human CEA antigen (sCEA; Abcam, …); experiment: not described (own data)
[2] = target: T2, human CEA (carcinoembryonic …); experiment: cell-based or functional assay
[3] = target: T1, soluble human CEA antigen (sCEA; Abcam, …); experiment: cell-based or functional assay

Row | Binder | binding result [1] | ADCC EC50, sCEA 0 ug/ml [2] [ng/mL] | ADCC EC50 in the presence of sCEA 1 ug/ml [2] [ng/mL] | ADCC EC50 in the presence of sCEA 10 ug/ml [2] [ng/mL] | Inhibitory factor (ADCC EC50 with 1 ug/ml sCEA divided by EC50 without sCEA) [3] [fold] | Inhibitory factor (ADCC EC50 with 10 ug/ml sCEA divided by EC50 without sCEA) [3] [fold]
1 | murine monoclonal antibody A5B7 (antibody, V domains shown, The parental murine monoclonal; also called mAb A5B7) VH: EVQLVESGGGLVQPGGSLRLSCATSGFTFTDYYMNWVRQPPGKALEWLGFIGNKANGYTTEYSASVKGRFTISRDKSQSILYLQMNTLRAEDSATYYCTRDRGLRFYFDYWGQGTTVTVSS VL: DIELTQSPAILSASPGEKVTMTCRASSSVTYIHWYQQKPGSSPKSWIYATSNLASGVPARFSGSGSGTSYSLTISRVEAEDAATYYCQHWSSKPPTFGGGTKLEIK | binds | – | – | – | – | –
2 | IgG1 A5, derived from scFv A5 (antibody, V domains shown) VH: EVQLVESGGGVVQPGRSLRLSCAASGFTLSTYAMHWVRQAPGKGLEWVALISNDGSNKYYADSVKGRFTISRDNSKNTLYLQMNSLRAEDTAVYYCARDRGLRFYFDYWGQGTTVTVSS VL: QAVLTQPASLSASPGASASLTCTLRRGINVGAYSIYWYQQKPGSPPQYLLRYKSDSDKQQGSGVSSRFSASKDASANAGILLISGLQSEDEADYYCMIWHSGASAVFGGGTKLTVLG | – | 2.7 | 4 | 2.8 | 1.5 | 1

Continued, values first:

Row | binding result [1] | ADCC EC50, sCEA 0 ug/ml [2] [ng/mL] | ADCC EC50 in the presence of sCEA 1 ug/ml [2] [ng/mL] | ADCC EC50 in the presence of sCEA 10 ug/ml [2] [ng/mL] | Inhibitory factor (ADCC EC50 with 1 ug/ml sCEA divided by EC50 without sCEA) [3] [fold] | Inhibitory factor (ADCC EC50 with 10 ug/ml sCEA divided by EC50 without sCEA) [3] [fold] | Binder
3 | – | 4.8 | 45.3 | 53.4 | 9.4 | 11.1 | IgG1 B9, derived from scFv B9 (antibody, V domains shown) VH: EVQLVESGGGLVQPGRSLRLSCAASGFTVSSYWMHWVRQAPGKGLEWVGFIRNKANGGTTEYAASVKGRFTISRDDSKNTLYLQMNSLRAEDTAVYYCARDRGLRFYFDYWGQGTTVTVSS VL: QAVLTQPASLSASPGASASLTCTLRRGINVGAYSIYWYQQKPGSPPQYLLRYKSDSDKQQGSGVSSRFSASKDASANAGILLISGLQSEDEADYYCMIWHSGASAVFGGGTKLTVLG
4 | – | 4.4 | 14.7 | 6.3 | 3.3 | 1.4 | IgG1 D8, derived from scFv D8 (antibody, V domains shown) VH: EVQLVESGGGVVQPGRSLRLSCAASGFTLSTYAMHWVRQAPGKGLEWVALISNDGSNKYYADSVKGRFTISRDNSKNTLYLQMNSLRAEDTAVYYCTRDRGLRFYFDYWGQGTTVTVSS VL: QAVLTQPASLSASPGASASLTCTLRRGINVGAYSIYWYQQKPGSPPQYLLRYKSDSDKQQGSGVSSRFSASKDASANAGILLISGLQSEDEADYYCMIWHSGASAVFGGGTKLTVLG
